Laboratory results taken from patent US20150104459A1.

B1: TCN-542 (5079_A16) (antibody, V domains shown)
VH: QVQLQESGPGLVKPSQTLSLTCTVSGGSISSGNYYWNWVRQHPGKGLEWIGYIYYRGSTFYNPSLKSRVTISIDTSKNQFSLRLSSVTAADTAVYYCAKDTRSSLDNYQYGMDVWGQGTTVTVSS
VL: QTVVTQEPSLTVSPGGTVTLTCASSTGAVTSSYFPNWFQQKPGQAPRPLIYSTTIRHSWTPARFSGSLLGGKAALTLSGVQPEDEADYYCLLYSGGDPVAFGGGTKLTVL
B2: TCN-547 (5092_F11) (antibody, V domains shown)
VH: QVQLQESGPGLVKPSQTLSLTCTVSGDSISSVDHYWSWIRQHPVKGLEWIGFMYYSASTYYNPSLKSRVTISTDTSKNQFSLRLSSVTAADTAVYYCARGTCAGDCSLHYYYYGLDVWGQGRTVTVSS
VL: DIQMTQSPSSLSASVGDRVTITCRASQSISSYLNWYQHKPGKAPKVLMYAVSILQSGVPSRFSGSGSGADFTLTISSLQPEDFATYYCQQSYSSPLTFGGGTKVEIK
B3: TCN-526 (5084_C17) (antibody, V domains shown)
VH: EVLMVESGGGLVQPGGSVRLSCVASGFSFSSHWMTWVRQAPGKGLEWVANIEDDGGDKYYVDSVKGRFIISRDNAKNSVYLQMNSLRAEDTAVYFCARGSGSSDRSDYDPHYYYYLDVWGKGATVTVSS
VL: DIQLTQSPSSLSASVGDRVTITCRASQSISRYLNWYQQKPGKAPKLLLFAASTLLDGVPSRFSGSGSGTDFTLTISSLQPEDFATYYCQRNHSPSWTFGQGTRVEIK
B4: TCN-545 (5082_I15) (antibody, V domains shown)
VH: QVQLQQWGAGLLKPSETLSLSCAVFGGSFSDYYWTWIRQPPGKGLEWIGEIKHSGRTNYNPSLESRVTISVDTSKNQFSLKLSSVTAADTAIYYCARGTDPDTEGYCRSGSCSAFDFWGQGTLVTVSS
VL: EIVLTQSPGTLSLSPGERATLSCRASHFVNYRSLAWYQQTPGQVPRLLIYGASTRATGIPDRFSGSGSGTDFTLTISRLEPEDFAVYFCQQYGGSPRYTFGQGTRLEIK
B5: TCN-554 (5277_M05) (antibody, V domains shown)
VH: QVQLVQSGADLKKPGASVKVSCKASGYTFTDYYIHWVRQAPGQGLEWMGWINPESGDTKYAQKFQGRVTMTRDTSITTAYMELGRLRSDDTAVYYCARDVSTTWSWFAPWGQGTLVTVSS
VL: DIVMTQSPDSLAVSLGERATINCRSSQSIFHNSNNENYLAWYQQKPGQPPKLLIYWASTRESGVPDRFSGSGSGTDFTLTISSLQAEDVAVYFCQQYYNAPLTFGGGTKVEIK
B6: TCN-522 (3212_I12) (antibody, V domains shown)
VH: QVQLQQWGAGLLKPSETLSLTCTVSGGSLTDYSWNWIRQPPGKGLEWIGDTLHNGYTNYNPSLRGRVSISIDTSKNQVSLRLTSVTAADTALYYCARGSGGYGGFDYFGKLRTWDFWGQGTLVTVSS
VL: DIQLTQSPSSLSASVGDRVTITCRASQGIRNDLGWYQQKPGNAPKRLIFGASSLQSGVPSRFSGSGSGTEFTLTISSLQPEDFATYYCLQHNSYPYTFGQGTKLEIK

Legend:
Details in all cases: remark: other sources report otherwise
[1] = target: recombinant soluble homotrimeric HA, A/northern shoveler/California/HKWF115/2007 (H6N1) (influenza A virus A/northern shoveler/California/HKWF115/2007 (H6N1)); assay: microarray, trimeric HA, transfection supernatant
[2] = target: recombinant soluble homotrimeric HA, A/chicken/Vietnam/NCVD-016/08 (H5N1) (influenza A virus A/chicken/Vietnam/NCVD-016/2008 (H5N1)); assay: microarray, trimeric HA, transfection supernatant
[3] = target: recombinant soluble homotrimeric HA, A/Anhui/1/05 (H5N1) (influenza A virus A/Anhui/1/2005 (H5N1)); assay: microarray, trimeric HA, transfection supernatant
[4] = target: recombinant soluble homotrimeric HA, A/Hong Kong/156/97 (H5N1) (influenza A virus A/Hong Kong/156/97 (H5N1)); assay: microarray, trimeric HA, transfection supernatant
[5] = target: recombinant soluble homotrimeric HA, A/duck/Yangzhou/02/2005 (H8N4) (influenza A virus A/duck/Yangzhou/02/2005 (H8N4)); assay: microarray, trimeric HA, transfection supernatant
[6] = target: recombinant homotrimeric HA, A/Japan/305/57 H2N2 (Influenza A virus A/Japan/305/57 (H2N2)); assay: trimeric HA microarray; transfection supernatant set 5
[7] = target: recombinant soluble homotrimeric HA of A/Japan/305/57 (H2N2) (Influenza A virus A/Japan/305/1957 (H2N2)); assay: HA microarray, BCC supernatant
[8] = target: recombinant soluble homotrimeric HA of A/duck/Yangzhou/02/2005 (H8N4) (Influenza A virus A/duck/Yangzhou/02/2005 (H8N4)); assay: HA microarray, BCC supernatant
[9] = target: recombinant soluble homotrimeric HA, A/Netherlands/219/03 (H7N7) (influenza A virus A/Netherlands/219/03 (H7N7)); assay: microarray, trimeric HA, transfection supernatant
[10] = target: recombinant homotrimeric HA, A/California/4/09 H1N1 (Influenza A virus A/California/4/09 (H1N1)); assay: trimeric HA microarray; transfection supernatant set 5
[11] = target: recombinant soluble homotrimeric HA of A/Solomon Islands/3/06 (H1N1) (Influenza A virus A/Solomon Islands/3/2006 (H1N1)); assay: HA microarray, BCC supernatant
[12] = target: recombinant soluble homotrimeric HA of A/chicken/Vietnam/NCVD-016/08 (H5N1) (Influenza A virus A/chicken/Vietnam/NCVD-016/2008 (H5N1)); assay: HA microarray, BCC supernatant
[13] = target: recombinant soluble homotrimeric HA of A/Netherlands/219/03 (H7N7) (Influenza A virus A/Netherlands/219/03 (H7N7)); assay: HA microarray, BCC supernatant
[14] = target: recombinant soluble homotrimeric HA of A/Wisconsin/67/05 (H3N2) (Influenza A virus A/Wisconsin/67/2005 (H3N2)); assay: HA microarray, BCC supernatant
[15] = target: recombinant soluble homotrimeric HA of A/California/4/09 (H1N1) (Influenza A virus A/California/04/2009 (H1N1)); assay: HA microarray, BCC supernatant
[16] = target: T1, recombinant homotrimeric HA, A/Solomon Islands/3/06 H1N1 (Influenza A virus A/Solomon Islands/3/06 (H1N1)); assay: trimeric HA microarray; transfection supernatant set 2
[17] = target: recombinant soluble homotrimeric HA of A/Vietnam/1203/04 (H5N1) (Influenza A virus A/Vietnam/1203/2004 (H5N1)); assay: HA microarray, BCC supernatant
[18] = target: T2, recombinant homotrimeric HA, A/swine/Ontario/01911-2/99 H4N6 (Influenza A virus A/swine/Ontario/01911-2/99 (H4N6)); assay: trimeric HA microarray; transfection supernatant set 5
[19] = target: T1, recombinant homotrimeric HA, A/Solomon …; assay: as above
[20] = target: recombinant soluble homotrimeric HA of A/swine/Ontario/01911-2/99 (H4N6) (Influenza A virus A/Swine/Ontario/01911-2/99 (H4N6)); assay: HA microarray, BCC supernatant
[21] = target: T2, recombinant homotrimeric HA, …; assay: trimeric HA microarray; transfection supernatant set 2
[22] = target: recombinant soluble homotrimeric HA of A/Indonesia/5/05 (H5N1) (Influenza A virus A/Indonesia/5/2005 (H5N1)); assay: HA microarray, BCC supernatant

Binder	Trimeric HA Binding RLU [1]	Trimeric HA Binding RLU [2]	Trimeric HA Binding RLU [3]	Trimeric HA Binding RLU [4]	Trimeric HA Binding RLU [5]	Trimeric HA Binding RLU [7]	Trimeric HA Binding RLU [8]	Trimeric HA Binding RLU [9]	Trimeric HA Binding: RLU [10]	Trimeric HA Binding RLU [11]	Trimeric HA Binding RLU [12]	Trimeric HA Binding RLU [13]	Trimeric HA Binding RLU [14]	Trimeric HA Binding RLU [15]	Trimeric HA Binding RLU [17]	also measured
B1	2370 RLU	5460 RLU	7410 RLU	786 RLU	11600 RLU	142 RLU	332 RLU									Trimeric HA Binding: RLU [6]: 5180 RLU
B2	2620 RLU	1320 RLU			3340 RLU	40 RLU	278 RLU	2090 RLU	1470 RLU	155 RLU	198 RLU	401 RLU	16900 RLU	170 RLU		
B3						246 RLU				341 RLU	179 RLU		49300 RLU			Trimeric HA Binding: RLU [16]: 1470 RLU
B4		3230 RLU	4880 RLU	1560 RLU	13200 RLU	157 RLU			818 RLU		392 RLU		575 RLU	365 RLU	235 RLU	
B5		2710 RLU			5810 RLU	328 RLU		4520 RLU			250 RLU	610 RLU	46500 RLU			Trimeric HA Binding: RLU [18]: 5400 RLU; Trimeric HA Binding: RLU [19]: 992 RLU; Trimeric HA Binding RLU [20]: 78 RLU
B6						989 RLU				38900 RLU			302 RLU	5020 RLU	145 RLU	Trimeric HA Binding: RLU [21]: 1050 RLU; Trimeric HA Binding RLU [22]: 67 RLU
